{"source": "paper PMC7442695", "about": "(Nature, 2020)", "binders": {"B1": {"name": "C121 monoclonal antibody (IgG) (antibody, V domains shown)", "VH": "not shown", "VL": "QSALTQPASVSGSPGQSITISCTGTSSDVGSYNLVSWYQQHPGKAPKLMIYEGSKRPSGVSNRFSGSKSGNTASLTISGLQAEDEADYYCCSYAGSSTLVFGGGTKLTVL"}, "B2": {"name": "C101 monoclonal antibody (IgG) (antibody, V domains shown)", "VH": "QVQLVESGGGLIQPGGSLRLSCAASGFIVSSNYMSWVRQAPGKGLEWVSVIYSGGSTFYTDSVKGRFTISRDNSKNTLYLQMNSLRAEDTAVYYCVRDYGDFYFDYWGQGTLVTVSS", "VL": "EIVLTQSPGTLSLSPGERATLSCRASQSVSSSYLAWYQQKPGQAPRLLIYGASSRATGIPDRFSGGGSETDFTLTISRLEPEDCAVYYCQQYGSSPRTFGQGTKVEIK"}, "B3": {"name": "C119 monoclonal antibody (IgG) (antibody, V domains shown)", "VH": "QVQLVQSGAEVKKPGASVKVSCKASGYTFTSYYMHWVRQAPGQGLEWMGIINPSGGSTSYAQKLQGRVTMTRDTSTSTVYMELSSLRSEDTAVYYCARANHETTMDTYYYYYYMDVWGKGTTVTVSS", "VL": "QSALTQPASVSGSPGQSITISCTGTSSDVGGYKYVSWYQRHPGKAPKLMIYDVSNRPSGVSNRFSGSKSGNTASLTISGLQAEDEADYYCSSYTSSSTSVVFGGGTQLTVL"}, "B4": {"name": "C009 monoclonal antibody (IgG) (antibody, V domains shown)", "VH": "not shown", "VL": "QSALTQPPSASGSPGQSVTISCTGTSSDVGGYNYVSWYQQHPGKAPKLMIYEVSKRPSGVPDRFSGSKSGNTASLTVSGLQAEDEAEYYCSSDAGSNNVVFGGGTKLTVL"}, "B5": {"name": "C002 monoclonal antibody (IgG) (antibody, V domains shown)", "VH": "EVQLVESGGGVVQPGRSLRLSCAASGFTFSIYGMHWVRQAPGKGLEWVAVISYDGSNKYYADSVKGRFTISRDNSKNTLYLQMNSLRAEDTAVYYCAKEGRPSDIVVVVAFDYWGQGTLVTVSS", "VL": "not shown"}}}
{"biological_target": "SARS-CoV-2 receptor binding domain (RBD; residues 331–524) (SARS-CoV-2, early isolate (GenBank …, UniProt P0DTC2)", "assay": "BLI"}
{"binder": "B1", "binding result": "binds"}
{"binder": "B2", "binding result": "binds"}
{"binder": "B3", "binding result": "binds"}
{"binder": "B4", "binding result": "binds"}
{"binder": "B5", "binding result": "binds"}
